Tests used:
SEC = biological target: the molecule itself; test: SEC
cross-linking = biological target: the molecule itself; test: cross-linking
SAXS = biological target: the molecule itself; test: SAXS
[1] = biological target: Rad50 WT (in MRN);Mre11;Nbs1 (Homo sapiens;Homo sapiens;Homo sapiens, UniProt Q92878;P49959;O60934 1-1312;1-708;1-754, ||); test: EMSA
[2] = biological target: Rad50 dCC (in MRN);Mre11;Nbs1 (Homo sapiens;Homo sapiens;Homo sapiens, UniProt Q92878;P49959;O60934 1-1312;1-708;1-754, del614-668;del702-750||); test: EMSA
crystal structure = biological target: the molecule itself; test: crystal structure

B1: Rad50ΔCC (Rad50HCC182 with residues 614-668 and 702-750 deleted) (domain or fragment, human, UniProt Q92878 585-766, looked up)
chain: KEINQTRDRLAKLNKELASSEQNKNHINNFITQLTDENQSCCPVCQRVFQTEAELQEVISDLRNKLQNVNRDIQRLKN
binding result (SEC): binds

B2: Rad50ΔCC K599C (domain or fragment, human, UniProt Q92878 585-766, looked up)
chain: KEINQTRDRLAKLNCELASSEQNKNHINNFITQLTDENQSCCPVCQRVFQTEAELQEVISDLRNKLQNVNRDIQRLKN
binding result (cross-linking): binds

B3: HsRad50HCC construct that contains the two interfaces (residues 635 to 730) (domain or fragment, human, UniProt Q92878 635-730, looked up)
chain: SQDFESDLDRLKEEIEKSSKQRAMLAGATAVYSQFITQLTDENQSCCPVCQRVFQTEAELQEVISDLQSKLRLAPDKLKSTESELKKKEKRRDEML
binding result (SAXS): binds

B4: 83-mer dsDNA (dsDNA)
DNA 1: TTGATAAGAGGTCATTTTTGCGGATGGCTTAGAGCTTAATTGCTGAATCTGGTGCTGTAGCTCAACATGTTTTAAATATGCAA
DNA 2: TTGCATATTTAAAACATGTTGAGCTACAGCACCAGATTCAGCAATTAAGCTCTAAGCCATCCGCAAAAATGACCTCTTATCAA
binding result [1]: binds
binding result [2]: binds

B5: human Rad50 hook and coiled-coil domain, HsRad50HCC182 (residues 585 to 766) (domain or fragment, UniProt Q92878 585-766, looked up)
chain: KEINQTRDRLAKLNKELASSEQNKNHINNELKRKEEQLSSYEDKLFDVCGSQDFESDLDRLKEEIEKSSKQRAMLAGATAVYSQFITQLTDENQSCCPVCQRVFQTEAELQEVISDLQSKLRLAPDKLKSTESELKKKEKRRDEMLGLVPMRQSIIDLKEKEIPELRNKLQNVNRDIQRLKN
binding result (crystal structure): binds

B6: Rad50-48 (S679R, P682R) Rad50HCC182 K599C (domain or fragment, human, UniProt Q92878 585-766, looked up)
chain: KEINQTRDRLAKLNCELASSEQNKNHINNELKRKEEQLSSYEDKLFDVCGSQDFESDLDRLKEEIEKSSKQRAMLAGATAVYSQFITQLTDENQRCCRVCQRVFQTEAELQEVISDLQSKLRLAPDKLKSTESELKKKEKRRDEMLGLVPMRQSIIDLKEKEIPELRNKLQNVNRDIQRLKN
binding result (cross-linking): binds

B7: HsRad50HCC182 K599C (domain or fragment, human, UniProt Q92878 585-766, looked up)
chain: KEINQTRDRLAKLNCELASSEQNKNHINNELKRKEEQLSSYEDKLFDVCGSQDFESDLDRLKEEIEKSSKQRAMLAGATAVYSQFITQLTDENQSCCPVCQRVFQTEAELQEVISDLQSKLRLAPDKLKSTESELKKKEKRRDEMLGLVPMRQSIIDLKEKEIPELRNKLQNVNRDIQRLKN
binding result (cross-linking): binds

B8: HsRad50HCC182 S738C (domain or fragment, human, UniProt Q92878 585-766, looked up)
chain: KEINQTRDRLAKLNKELASSEQNKNHINNELKRKEEQLSSYEDKLFDVCGSQDFESDLDRLKEEIEKSSKQRAMLAGATAVYSQFITQLTDENQSCCPVCQRVFQTEAELQEVISDLQSKLRLAPDKLKSTESELKKKEKRRDEMLGLVPMRQCIIDLKEKEIPELRNKLQNVNRDIQRLKN
binding result (cross-linking): binds

— publication PMC5625350 (Nature structural & molecular biology, 2017)
